Test results taken from publication doi:10.1101/543108.

Biological target: ATP synthase c-subunit (c10-ring) (Polytomella sp.)
Assay: cryo-EM structure

Substance: ATP synthase c-subunit (c10-ring) (natural protein)
- stoichiometry N: 10
